Tests used:
[1] = molecular target: c-Src SH2; assay: SH2 binding enrichment of the phosphorylated peptide, bacterial display (enrichment ratio); higher = better substrate or ligand; peptides without Tyr show the background
[2] = molecular target: SHP2-C SH2; assay: as above
[3] = molecular target: Grb2 SH2 (UniProt P62993); assay: as above
[4] = molecular target: Fes (UniProt P07332); assay: phosphorylation enrichment, bacterial display (enrichment ratio); higher = better substrate or ligand; peptides without Tyr show the background
Chain of Fes (P07332 whole entry, looked up): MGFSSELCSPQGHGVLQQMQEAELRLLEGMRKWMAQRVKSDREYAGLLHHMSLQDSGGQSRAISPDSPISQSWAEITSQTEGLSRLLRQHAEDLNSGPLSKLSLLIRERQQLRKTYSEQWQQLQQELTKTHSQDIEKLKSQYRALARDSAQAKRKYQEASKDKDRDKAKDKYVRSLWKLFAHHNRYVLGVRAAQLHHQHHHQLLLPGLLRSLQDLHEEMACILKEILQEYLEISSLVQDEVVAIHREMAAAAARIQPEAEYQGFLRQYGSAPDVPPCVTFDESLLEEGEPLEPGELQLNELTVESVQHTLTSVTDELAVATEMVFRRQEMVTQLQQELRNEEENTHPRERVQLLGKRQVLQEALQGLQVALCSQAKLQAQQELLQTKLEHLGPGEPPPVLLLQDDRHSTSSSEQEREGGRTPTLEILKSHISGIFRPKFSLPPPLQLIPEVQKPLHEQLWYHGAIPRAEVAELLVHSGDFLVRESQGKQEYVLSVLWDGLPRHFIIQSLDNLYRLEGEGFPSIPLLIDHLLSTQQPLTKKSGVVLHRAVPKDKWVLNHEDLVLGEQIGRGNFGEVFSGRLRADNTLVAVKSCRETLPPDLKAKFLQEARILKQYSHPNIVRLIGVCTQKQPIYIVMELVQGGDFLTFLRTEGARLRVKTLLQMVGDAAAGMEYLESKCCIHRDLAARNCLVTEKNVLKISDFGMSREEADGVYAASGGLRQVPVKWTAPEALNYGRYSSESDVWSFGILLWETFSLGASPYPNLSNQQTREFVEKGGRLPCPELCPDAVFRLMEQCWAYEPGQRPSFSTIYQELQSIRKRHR

[5] = molecular target: EPHB1 (UniProt P54762); assay: as above
[6] = molecular target: FGFR3 (UniProt P22607); assay: as above
[7] = molecular target: Jak2 (UniProt O60674); assay: as above
Chain of Jak2 (O60674 whole entry, looked up): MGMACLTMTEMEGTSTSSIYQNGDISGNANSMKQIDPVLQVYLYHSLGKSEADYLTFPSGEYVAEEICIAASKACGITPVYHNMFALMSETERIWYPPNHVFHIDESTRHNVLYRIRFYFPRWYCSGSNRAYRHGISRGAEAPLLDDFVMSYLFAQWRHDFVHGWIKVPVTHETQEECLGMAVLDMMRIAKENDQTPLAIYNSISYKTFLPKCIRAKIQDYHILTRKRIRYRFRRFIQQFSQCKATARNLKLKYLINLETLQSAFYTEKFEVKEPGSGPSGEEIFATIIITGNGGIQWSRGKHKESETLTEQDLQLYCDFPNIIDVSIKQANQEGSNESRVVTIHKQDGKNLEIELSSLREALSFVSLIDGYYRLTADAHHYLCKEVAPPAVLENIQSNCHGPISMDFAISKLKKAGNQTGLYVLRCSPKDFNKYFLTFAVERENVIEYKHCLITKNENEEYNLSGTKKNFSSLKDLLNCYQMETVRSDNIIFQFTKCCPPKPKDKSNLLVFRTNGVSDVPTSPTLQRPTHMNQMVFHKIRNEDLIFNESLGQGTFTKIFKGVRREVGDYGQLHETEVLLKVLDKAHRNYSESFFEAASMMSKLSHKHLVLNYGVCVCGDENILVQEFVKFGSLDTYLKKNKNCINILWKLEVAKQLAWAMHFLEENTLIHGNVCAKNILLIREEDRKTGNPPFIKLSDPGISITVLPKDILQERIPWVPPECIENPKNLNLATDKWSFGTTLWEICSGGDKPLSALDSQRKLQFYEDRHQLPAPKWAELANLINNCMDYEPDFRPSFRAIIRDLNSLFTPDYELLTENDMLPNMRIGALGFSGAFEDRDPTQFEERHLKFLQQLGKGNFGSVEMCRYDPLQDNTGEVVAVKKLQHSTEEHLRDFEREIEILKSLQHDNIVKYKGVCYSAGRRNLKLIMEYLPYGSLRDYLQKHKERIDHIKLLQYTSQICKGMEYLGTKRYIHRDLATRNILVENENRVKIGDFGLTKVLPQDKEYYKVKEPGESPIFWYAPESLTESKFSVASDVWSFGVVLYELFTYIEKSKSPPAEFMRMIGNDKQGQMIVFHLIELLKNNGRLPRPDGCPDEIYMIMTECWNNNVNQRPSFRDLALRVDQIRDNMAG

[8] = test system: c-Abl (mouse); assay: as above
[9] = molecular target: FGFR1 (UniProt P11362); assay: as above
[10] = molecular target: MERTK (UniProt Q12866); assay: as above
Chain of MERTK (Q12866 whole entry, looked up): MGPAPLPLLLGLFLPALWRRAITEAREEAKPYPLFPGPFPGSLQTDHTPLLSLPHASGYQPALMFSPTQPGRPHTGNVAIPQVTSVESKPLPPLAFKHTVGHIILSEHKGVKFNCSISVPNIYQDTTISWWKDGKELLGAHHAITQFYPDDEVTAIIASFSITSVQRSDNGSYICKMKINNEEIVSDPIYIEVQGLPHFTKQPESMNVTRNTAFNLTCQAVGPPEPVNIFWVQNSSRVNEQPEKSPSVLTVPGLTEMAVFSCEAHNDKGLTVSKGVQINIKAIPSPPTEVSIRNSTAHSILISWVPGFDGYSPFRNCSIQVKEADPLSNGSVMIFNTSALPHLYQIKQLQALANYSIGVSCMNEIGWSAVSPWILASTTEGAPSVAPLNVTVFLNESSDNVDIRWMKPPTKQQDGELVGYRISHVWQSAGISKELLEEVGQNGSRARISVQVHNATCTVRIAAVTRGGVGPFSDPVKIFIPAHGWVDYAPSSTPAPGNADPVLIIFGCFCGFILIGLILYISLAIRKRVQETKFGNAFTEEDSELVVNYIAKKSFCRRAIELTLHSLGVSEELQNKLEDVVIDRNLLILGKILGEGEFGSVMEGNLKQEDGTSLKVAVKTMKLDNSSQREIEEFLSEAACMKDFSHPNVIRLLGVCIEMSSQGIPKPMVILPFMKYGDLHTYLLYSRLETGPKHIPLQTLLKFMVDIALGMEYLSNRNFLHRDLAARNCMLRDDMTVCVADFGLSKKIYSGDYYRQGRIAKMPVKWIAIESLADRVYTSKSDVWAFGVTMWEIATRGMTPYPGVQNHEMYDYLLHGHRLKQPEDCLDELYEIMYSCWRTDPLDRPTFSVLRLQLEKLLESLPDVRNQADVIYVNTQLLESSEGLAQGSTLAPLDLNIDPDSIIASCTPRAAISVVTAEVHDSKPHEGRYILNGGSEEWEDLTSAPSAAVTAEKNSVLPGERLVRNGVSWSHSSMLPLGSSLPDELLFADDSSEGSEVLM

[11] = test system: Fer (mouse); assay: as above
[12] = test system: AncSZ; assay: as above
[13] = molecular target: EPHB2 (UniProt P29323); assay: as above
Chain of EPHB2 (P29323 whole entry, looked up): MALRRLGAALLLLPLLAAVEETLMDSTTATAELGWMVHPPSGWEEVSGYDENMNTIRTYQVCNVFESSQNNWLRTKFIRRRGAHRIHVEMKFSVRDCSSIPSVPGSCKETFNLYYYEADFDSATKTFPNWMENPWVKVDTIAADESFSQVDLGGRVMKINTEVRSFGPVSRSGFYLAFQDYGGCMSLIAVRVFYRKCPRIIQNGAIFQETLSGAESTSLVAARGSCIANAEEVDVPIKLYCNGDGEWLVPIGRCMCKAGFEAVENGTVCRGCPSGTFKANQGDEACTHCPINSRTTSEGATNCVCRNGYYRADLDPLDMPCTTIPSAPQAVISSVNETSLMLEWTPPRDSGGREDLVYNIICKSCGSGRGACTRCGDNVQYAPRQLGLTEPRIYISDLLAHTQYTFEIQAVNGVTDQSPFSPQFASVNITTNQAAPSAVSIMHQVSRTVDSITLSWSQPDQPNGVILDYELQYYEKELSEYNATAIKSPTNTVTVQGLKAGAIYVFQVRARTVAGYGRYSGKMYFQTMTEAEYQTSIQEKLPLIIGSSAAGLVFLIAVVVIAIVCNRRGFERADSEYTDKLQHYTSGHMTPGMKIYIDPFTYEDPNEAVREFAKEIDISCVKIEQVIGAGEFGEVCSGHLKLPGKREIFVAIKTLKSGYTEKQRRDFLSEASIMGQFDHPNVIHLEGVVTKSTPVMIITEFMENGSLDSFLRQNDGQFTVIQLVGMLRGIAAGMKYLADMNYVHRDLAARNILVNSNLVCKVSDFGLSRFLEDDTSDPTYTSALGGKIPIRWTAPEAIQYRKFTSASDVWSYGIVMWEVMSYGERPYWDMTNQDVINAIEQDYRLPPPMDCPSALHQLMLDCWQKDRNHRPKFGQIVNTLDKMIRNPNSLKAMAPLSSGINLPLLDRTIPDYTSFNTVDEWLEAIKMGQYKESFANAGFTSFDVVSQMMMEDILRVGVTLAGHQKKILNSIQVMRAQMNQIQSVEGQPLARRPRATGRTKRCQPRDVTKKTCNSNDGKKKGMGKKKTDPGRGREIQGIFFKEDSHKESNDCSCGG

[14] = molecular target: Hck (UniProt P08631); assay: as above
Chain of Hck (P08631 whole entry, looked up): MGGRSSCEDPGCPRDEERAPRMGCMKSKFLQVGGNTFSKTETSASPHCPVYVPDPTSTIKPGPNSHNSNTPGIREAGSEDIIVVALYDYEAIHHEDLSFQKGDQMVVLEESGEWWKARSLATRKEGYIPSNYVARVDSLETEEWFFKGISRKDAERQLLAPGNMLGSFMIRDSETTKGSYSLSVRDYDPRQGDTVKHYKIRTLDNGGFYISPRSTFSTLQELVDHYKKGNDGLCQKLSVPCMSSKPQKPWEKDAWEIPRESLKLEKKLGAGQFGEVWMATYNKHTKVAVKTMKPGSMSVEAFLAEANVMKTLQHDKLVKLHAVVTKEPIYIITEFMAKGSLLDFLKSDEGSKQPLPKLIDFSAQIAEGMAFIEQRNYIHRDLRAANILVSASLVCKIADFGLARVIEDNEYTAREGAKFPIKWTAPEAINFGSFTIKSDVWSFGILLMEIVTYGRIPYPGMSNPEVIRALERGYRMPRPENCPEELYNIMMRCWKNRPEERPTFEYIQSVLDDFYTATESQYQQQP

[15] = test system: c-Src; assay: as above
[16] = molecular target: Fyn (UniProt P06241); assay: as above
Chain of Fyn (P06241 whole entry, looked up, the tested form may be a part): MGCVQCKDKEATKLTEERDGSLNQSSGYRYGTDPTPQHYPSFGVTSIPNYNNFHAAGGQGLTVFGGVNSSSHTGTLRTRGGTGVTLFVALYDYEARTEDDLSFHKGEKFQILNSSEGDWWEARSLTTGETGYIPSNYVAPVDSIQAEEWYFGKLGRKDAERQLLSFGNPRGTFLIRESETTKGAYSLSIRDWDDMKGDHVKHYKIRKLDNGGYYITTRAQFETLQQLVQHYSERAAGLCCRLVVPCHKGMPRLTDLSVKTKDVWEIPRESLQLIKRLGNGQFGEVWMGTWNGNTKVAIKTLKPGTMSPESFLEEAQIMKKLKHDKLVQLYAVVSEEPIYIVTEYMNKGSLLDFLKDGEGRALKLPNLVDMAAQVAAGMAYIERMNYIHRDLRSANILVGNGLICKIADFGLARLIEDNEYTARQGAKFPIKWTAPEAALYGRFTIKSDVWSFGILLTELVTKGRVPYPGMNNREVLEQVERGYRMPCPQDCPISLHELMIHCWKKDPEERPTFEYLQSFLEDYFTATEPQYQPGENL
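Wherever SH2 binding enrichment of the phosphorylated peptide, bacterial display is given: peptide library displayed on the E. coli surface as eCPX fusions, selected cells deep-sequenced, score is each peptide's frequency after selection divided by its frequency in the input.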
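Wherever phosphorylation enrichment, bacterial display is given: 11-residue human phosphosite peptides and single-mutation variants displayed on the E. coli surface, counted by deep sequencing, each peptide's frequency after selection divided by its frequency in the unselected input library; frequency after pTyr selection over input frequency; kinase dosed for 20-30% of maximal phosphorylation in three min.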

Sequence	SH2 binding enrichment [1]	SH2 binding enrichment [2]	SH2 binding enrichment [3]	phosphorylation enrichment [4]	phosphorylation enrichment [5]	phosphorylation enrichment [6]	phosphorylation enrichment [7]	phosphorylation enrichment [8]	phosphorylation enrichment [9]	phosphorylation enrichment [10]	phosphorylation enrichment [11]	phosphorylation enrichment [12]	phosphorylation enrichment [13]	phosphorylation enrichment [14]	phosphorylation enrichment [15]	phosphorylation enrichment [16]
DTQNSYRCATS [TSC1_Y304_G305R]	0.554	0.594	0.956	0.726	0.389	0.486	0.612	0.593	0.565	0.466	0.392	0.771	0.501	0.42	0.449	0.538
VIDGKYAFKPK [GTF2E2_Y137]	0.451	0.602	0.873	0.457	0.264	0.329	0.421	0.585	0.348	0.323	0.276	0.413	0.304	0.412	0.328	0.348
TVLGEYALPKG [CYP24A1_Y407]	0.572	0.429	0.707	0.621	0.58	0.562	0.592	6.83	0.45	0.585	0.404	1.15	0.542	0.565	0.39	0.491
GRRNTYYASIA [ACADM_Y352]	0.999	0.624	0.779	0.849	0.35	0.454	0.735	0.572	0.45	0.774	0.414	0.653	0.477	0.56	0.638	0.532
QRALLYEDTLF [UNC13D_Y56_A59T_YF]	0.547	0.82	0.739	4.74	15.4	0.853	1.68	1.13	0.599	9.24	17.9	1.58	13.9	1.65	1.95	1.49
NYAKMYCNPDA [KNL1_Y489]	2.11	0.531	0.795	1.1	0.673	0.667	1.17	0.989	0.561	0.498	0.59	1.12	0.608	0.518	0.626	0.463
HHTDECEYDEL [TGM1_Y134_Y134C]	0.516	0.764	1.21	1.75	0.835	1.03	1.33	0.906	0.504	0.641	0.729	1.8	0.772	0.667	0.894	0.869
IGNGYYFHVFS [MYBPC3_Y1136_R1138H]	0.927	1.83	1.05	1.39	0.848	1.52	1.73	0.919	1.61	0.503	0.604	1.46	0.552	0.45	0.354	0.43
EELLHYAIVTP [POC5_Y37]	1.13	1.7	0.691	1.24	3.27	1.1	1.04	1.56	1.33	5.76	6.7	1.48	1.49	1.23	1.09	0.723
FKPENYRRLDI [VHL_Y175_V170F]	0.402	0.923	0.892	0.738	0.367	0.544	0.747	0.63	0.414	0.41	0.376	0.599	0.425	0.383	0.312	0.32
WRPFGYPHRRR [BCS1L_Y181_R183H]	0.478	0.633	0.662	0.511	0.534	0.554	0.509	0.5	0.507	0.505	0.512	0.622	0.461	0.509	0.473	0.488
GHEYIYVDPMQ [PDGFRA_Y574]	0.749	0.633	0.873	0.917	7.52	11.6	1.83	8.98	14.4	4.29	2.92	5.16	10.2	3.75	3.65	3.2
SWSTSYSGFRF [NKAPL_Y91_YF]	0.774	1.55	1.13	1.38	0.588	0.719	0.821	0.728	0.637	0.535	1.61	1.17	0.663	0.858	1.69	0.739
TSEASYFKSLN [NGEF_Y288_YF]	0.4	0.589	0.56	0.717	0.438	0.487	0.626	0.51	0.563	0.481	0.535	0.972	0.599	0.359	0.677	0.684
KGYCGYSYDDI [TMEM230_Y110_R108C]	7.21	0.993	0.837	0.972	0.557	0.823	0.891	0.621	0.927	0.607	0.89	1.35	0.536	0.563	0.862	0.468
EQLLDYTRTVQ [INPP5E_Y439_R435Q]	0.438	0.732	0.904	0.815	0.557	0.709	0.976	0.614	0.515	0.475	0.494	0.969	0.569	0.542	0.438	0.469
TKVTFYKQPMF [GBA_Y451_D448V]	0.453	0.737	0.777	0.936	0.439	0.631	0.853	0.588	0.461	0.419	0.42	0.981	0.526	0.458	0.337	0.506

Sequence	SH2 binding enrichment [1]	SH2 binding enrichment [2]	SH2 binding enrichment [3]	phosphorylation enrichment [4]	phosphorylation enrichment [5]	phosphorylation enrichment [6]	phosphorylation enrichment [7]	phosphorylation enrichment [8]	phosphorylation enrichment [9]	phosphorylation enrichment [10]	phosphorylation enrichment [11]	phosphorylation enrichment [12]	phosphorylation enrichment [13]	phosphorylation enrichment [14]	phosphorylation enrichment [15]	phosphorylation enrichment [16]
GEFHVYRHLRR [PRKRIP1_Y82]	0.501	0.358	0.601	0.863	0.43	0.581	0.896	0.601	0.57	0.494	0.4	1.3	0.465	0.57	0.518	0.484
TNITEYCRDLI [RECQL_Y492_K487T]	0.537	0.6	0.759	1.35	0.614	0.743	1.25	0.81	0.498	0.415	0.491	1.01	0.617	0.569	0.56	0.497
LLIMEYAKYGS [RET_Y806_V804M]	1.11	1.04	1.41	1.81	1.4	1.19	2.18	1.51	0.999	0.6	0.903	1.39	1.02	0.64	0.973	1.03
NRNVRYLTLDI [AKR1C2_Y305]	1.96	6.75	1.03	0.921	0.392	0.499	0.835	0.635	0.507	0.497	0.395	0.744	0.506	0.523	0.441	0.381
SEDSEYFRAFE [CASQ2_Y178_K180R_YF]	0.439	0.559	0.874	1.48	0.633	0.854	1.26	1.31	0.586	0.476	0.511	1.99	0.591	0.524	0.693	0.545
VIKSSYQVAKA [CPT1B_Y534_E531K]	0.41	0.503	0.783	0.749	0.364	0.428	0.406	0.489	0.391	0.371	0.326	0.588	0.414	0.391	0.458	0.34
VVQGIYGYHHY [UFSP2_Y285]	0.829	1.11	1.12	1.04	3.24	0.575	0.683	7.67	0.662	11.3	16.7	0.923	8.76	10.5	8.86	11.8
ATHSRYRLNDY [CLDN14_Y233_G232R]	0.682	0.563	0.744	0.735	0.484	0.468	0.406	0.476	0.387	0.459	0.37	0.562	0.371	0.505	0.417	0.442
EDKSIYRRGAC [PRKCI_Y125_R130C]	0.514	0.831	0.941	0.705	0.34	0.495	0.532	0.474	0.42	0.406	0.35	0.496	0.429	0.405	0.315	0.375
MSLPGYKLVTG [GJA1_Y286_P283L]	0.489	0.682	0.766	0.585	0.374	0.456	0.497	0.348	0.495	0.364	0.518	0.536	0.393	0.345	0.353	0.378
LVTAWYIGFLC [KCNQ2_Y237]	0.622	0.712	1.16	2.62	1.12	1.3	2.67	2.12	0.872	0.629	0.873	2.1	0.95	1.11	1.15	0.748
SVMAEYGLFRA [VSX2_Y219_G223R_YF]	0.444	0.627	0.773	0.661	0.481	0.538	0.505	0.589	0.514	0.51	0.513	0.77	0.513	5.72	6.04	6.8
PLKYLYPNIDK [STAT1_Y668]	0.825	0.735	0.785	0.896	0.638	0.614	1	0.775	0.41	0.786	0.614	0.88	0.69	0.782	0.461	0.564
GYITSYREEEQ	0.49	0.573	0.646	1.37	0.677	0.711	1.15	0.879	0.595	0.442	0.616	1.29	0.659	0.543	0.463	0.554
EKKDLYKAGEQ [CFH_Y1008_V1007L]	0.46	0.655	0.794	0.799	0.382	0.647	0.606	0.62	0.356	0.374	0.431	0.705	0.432	0.374	0.369	0.43
KKCTRYIDCDL [ASPA_Y64]	0.875	0.83	0.932	0.852	0.428	0.575	0.782	0.757	0.623	0.421	0.423	0.798	0.434	0.41	0.429	0.389

Reference: the supplement of paper PMC10065799, “High-throughput profiling of sequence recognition by tyrosine kinases and SH2 domains using bacterial peptide display” (eLife, 2023)
